T1: human recombinant HMGB1 protein (Homo sapiens, UniProt P09429)
T1 construct: purchased Abcam
T1 sequence (P09429 1-215): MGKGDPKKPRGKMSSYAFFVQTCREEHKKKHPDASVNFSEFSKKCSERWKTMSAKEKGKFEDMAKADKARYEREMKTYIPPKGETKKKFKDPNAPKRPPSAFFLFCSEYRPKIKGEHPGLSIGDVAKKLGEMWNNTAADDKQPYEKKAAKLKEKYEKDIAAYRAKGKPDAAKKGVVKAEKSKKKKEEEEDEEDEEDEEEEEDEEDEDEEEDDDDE

B1: lactoferrin (protein, UniProt P02788 20-710, looked up)
Lactotransferrin: GRRRSVQWCAVSQPEATKCFQWQRNMRKVRGPPVSCIKRDSPIQCIQAIAENRADAVTLDGGFIYEAGLAPYKLRPVAAEVYGTERQPRTHYYAVAVVKKGGSFQLNELQGLKSCHTGLRRTAGWNVPIGTLRPFLNWTGPPEPIEAAVARFFSASCVPGADKGQFPNLCRLCAGTGENKCAFSSQEPYFSYSGAFKCLRDGAGDVAFIRESTVFEDLSDEAERDEYELLCPDNTRKPVDKFKDCHLARVPSHAVVARSVNGKEDAIWNLLRQAQEKFGKDKSPKFQLFGSPSGQKDLLFKDSAIGFSRVPPRIDSGLYLGSGYFTAIQNLRKSEEEVAARRARVVWCAVGEQELRKCNQWSGLSEGSVTCSSASTTEDCIALVLKGEADAMSLDGGYVYTAGKCGLVPVLAENYKSQQSSDPDPNCVDRPVEGYLAVAVVRRSDTSLTWNSVKGKKSCHTAVDRTAGWNIPMGLLFNQTGSCKFDEYFSQSCAPGSDPRSNLCALCIGDEQGENKCVPNSNERYYGYTGAFRCLAENAGDVAFVKDVTVLQNTDGNNNEAWAKDLKLADFALLCLDGKRKPVTEARSCHLAMAPNHAVVSRMDKVERLKQVLLHQQAKFGRNGSDCPDKFCLFQSETKNLLFNDNTECLARLHGKTTYEKYLGPQYVAGITNLKKCSTSPLLEACEFLRK
B2: Lf-GL-FITC: FITC-tagged Lf-GL for cellular uptake studies (conjugate, UniProt P02788 20-710, looked up)
Lactotransferrin: B1 Lactotransferrin
modifications: FITC label; GL conjugate
notes: FITC-tagged Lf-GL for cellular uptake studies

Experiments:
[1] = tested on: orthotopic GBM (U87MG) mice model; assay: Survival in orthotopic GBM mouse model; assay type: in vivo, Balb/c nude mice; details: i.v. GL equivalent 50 mg kg^−1 (Lf 5 mg kg^−1)
Method: To establish the orthotopic GBM mice model, GBM cells (U87MG, inoculation density: 1.0 × 10^6 cells per 10 μL) were stereotactically injected into the right striatum of Balb/c nude mice. Then, mice were randomly divided into four groups (n = 5): control, GL, Lf, and Lf-GL treated group. […] After four weeks, mice were sacrificed, and organs were harvested and fixed with 4% paraformaldehyde for further analysis.

CD31 = assay: Immunofluorescence staining of CD31 in GBM tissue; assay type: in vivo, Balb/c nude mice; details: GBM mice, daily i.v., 14 days (control MFI 14.7 ± 1.4)
Description: (§1) After two weeks, mice were sacrificed, and the brains were harvested and fixed with paraformaldehyde (4%). Then, tissue processing was automatically conducted using a Leica TP1020 semi-enclosed Benchtop Tissue Processor (Leica Biosystems, Wetzlar, Hesse, Germany), followed by embedding in paraffin blocks. Paraffin blocks were sliced into 5 μm thick slices using a Leica RM2145 Microtome (Leica Biosystems). Nissl staining was used to stain brain tissue slides with pre-warmed 0.1% Cresyl Violet Stain Solution (Abcam). TUNEL assays were conducted following the manufacturer’s instructions. For immunofluorescence staining; anti-HMGB1 antibody (Abcam), anti-Ki67 antibody (Abcam), anti-CD31 antibody (Abcam), and anti-VEGF antibody (Abcam) were used as primary antibodies, and goat anti-rabbit IgG-H&L Alexa Fluor 488 and goat anti-rabbit IgG H&L Alexa Fluor 647 were used as secondary antibodies, followed by DAPI mounting.

HMGB1 [2] = assay: HUVEC co-cultured with U87MG: HMGB1 ELISA; assay type: cell-based, human; details: HUVEC/U87MG co-culture, 100 μM GL equivalent, 24 h (control 217.8 ± 5.9)
Method: (§2) To evaluate the inhibitory effect of Lf-GL on neovascularization in the tumor microenvironment in vitro, U87MG cells were seeded in the Transwell® insert chambers that were 6.5 mm in diameter and had 0.4 μm pore sizes (seeding density: 2.5 × 10^4 cells per well, Corning). HUVECs were seeded in the Transwell basal chamber (seeding density: 5.0 × 10^4 cells per well). GL, Lf, or Lf-GL (100 × 10^–6 M of GL equivalent concentration) were added to the insert chamber, and cells were incubated for 24 h. CCK-8 assay and HMGB1 ELISA were conducted at the basal chamber.

[3] = tested on: orthotopic GBM (U87MG) mice model; assay: TUNEL assay of GBM tissue; assay type: in vivo, Balb/c nude mice; details: daily i.v., 14 days (control 28.5 ± 4.8)
Description: as §1

[4] = tested on: U87MG human glioma cell line; assay: Cell viability test (CCK-8) in U87MG; assay type: cell-based; details: 50 μM GL equivalent, after 48 h treatment
Method: Cell viability was determined using a cell counting kit-8 (CCK-8). U87MG and HUVECs (seeding density: 0.75 × 10^4 cells per well) in 96-well culture plates were treated with GL, Lf, or Lf-GL (25 to 200 × 10^–6 M of GL equivalent concentration) and were incubated for different periods of time (24, 48, and 72 h). After washing with PBS, they were treated with a cell culture medium containing a CCK-8 assay kit (Abbkine) and were incubated at 37 °C and 5% CO2 for 2 h. Then, absorbance was measured at 450 nm in a micro-plate reader (VLBL00D0, Thermo Fisher Scientific). Results were quantified using Sigma Plot (Systat Software, USA). To determine the effect of extracellular HMGB1 in GBM and endothelial cell proliferation, U87MG and HUVECs were seeded in 96-well culture plates (seeding density: 0.75 × 10^4 cells per well) and GL, Lf, or Lf-GL (50 × 10^–6 M GL equivalent concentration) were added to cells with or without HMGB1 protein (U87MG: 0.1 μg mL^−1, and HUVEC: 1 μg mL^−1). Cells were incubated for different periods of time (24, 48, and 72 h).

[5] = target: T1, human recombinant HMGB1 protein; assay: SPR binding affinity against HMGB1; details: SPR, HMGB1 immobilized
Method: To confirm the binding affinity of Lf-GL to HMGB1, Surface Plasmon Resonance (SPR) was conducted at WoojungBSC (Korea). The Reichert SR7500DC system (Reichert technologies, NA, USA) and Scrubber2 software (Biologic software, FRA) were used, and a CMDH chip (Cat #: 13,206,066, Reichert technologies) was used for immobilization of the human recombinant HMGB1 protein (Abcam). HMGB1 protein was used as a ligand, and the analytes were HMGB1 antibody (Abcam), GL, Lf and Lf-GL conjugate. The immobilization buffer was S.A. (10 × 10^–3 M, pH 4.5), and the running buffer was PBS (pH 7.4). The flow rate of the analyte was 30 μL min^−1. The association and dissociation time were 3 min each, and measurements were conducted at room temperature. Results are expressed in response units (RU) over time.
Fig. S5. Binding affinity against HMGB1. Surface Plasmon Resonance (SPR) was conducted at WoojungBSC (Korea). The Reichert SR7500DC system (Reichert technologies, NA, USA) and Scrubber2 software(Biologic software, FRA) were used and the CMDH chip (Cat #: 13206066, Reichert technologies) was used for immobilization of the human recombinant HMGB1 protein (Abcam). HMGB1 protein was used as ligand and analytes were HMGB1 antibody (Abcam), GL, Lf and Lf-GL conjugate. Immobilization buffer was 10 mM S.A. (pH 4.5) and running buffer was 1× PBS. The flow rate of the analyte was 30 μL min^-1. The association and dissociation time were 3 min each and conducted at room temperature. Results are expressed in response units (RU) over time.

[6] = tested on: orthotopic GBM (U87MG) mice model; assay: Nissl staining: GBM/normal brain ratio; assay type: in vivo, Balb/c nude mice; details: daily i.v. GL equivalent 50 mg kg^−1, 14 days (control 37.5 ± 2.3)
Description: as §1

HUVEC = HUVEC co-cultured with U87MG: CCK-8 at basal chamber; assay type: cell-based, human; details: HUVEC/U87MG Transwell co-culture, 100 μM GL equivalent, 24 h
Method: as §2

HMGB1 [7] = assay: Immunofluorescence staining of HMGB1 in GBM tissue; assay type: in vivo, Balb/c nude mice; details: GBM mice, daily i.v. GL equivalent 50 mg kg^−1, 14 days (control 15.3 ± 1.7)
Description: as §1

HMGB1 [8] = assay: HMGB1 ELISA of U87MG culture medium; assay type: cell-based, human; details: 50 μM GL equivalent, 48 h (control 131.8 ± 11.4)
Method: U87MG cells were seeded in 100 mm-cell culture dishes (2.2 × 10^6 cells per dish) and treated with GL, Lf, or Lf-GL (50 × 10^–6 M GL equivalent concentration) for 48 h. After incubating, cells were collected using a cell scrapper and were centrifuged for 3 min at 150 × g. Supernatant was collected as cell culture medium, and pellets were washed with cold PBS twice and transferred into a microcentrifuge tube. Tubes were centrifuged, and then pellets were resuspended in 500 μL 1X hypotonic buffer and incubated on ice. Then, 25 μL of NP40 was added and the mixture was agitated using a vortex mixer at the highest setting. Homogenates were centrifuged for 10 min at 842 × g at 4℃. Supernatant was collected as the cytoplasmic fraction, and pellets were resuspended in cell extraction buffer (50 μL) and were incubated for 30 min on ice with vortexing at 10 min intervals. Then, homogenates were centrifuged for 30 min at 14,000 × g at 4℃. Supernatant was collected as the nuclear fraction. The amount of HMGB1 in the samples was measured using a HMGB1 ELISA kit (Abbkine), and absorbance was measured at 450 nm in a micro-plate reader. A DNA assay (Quant-iT™ dsDNA Assay Kit, Invitrogen) was also conducted to express HMGB1 concentrations in equivalent amounts of DNA.

U87MG cells = assay: Cellular uptake of FITC-tagged Lf-GL (flow cytometry); assay type: cell-based, human; details: 2 h incubation, Lf pre-treatment 500 nM
Method: To verify cellular uptake of Lf-GL, U87MG cells (seeding density: 2.5 × 10^4 cells per well) in an 8 well Nunc™ Lab-Tek II chambered coverglass (Thermo Scientific) were treated with FITC-tagged Lf-GL (1 × 10^–6 M) for different time periods (0 to 18 h). After washing with PBS, cells were treated with lysotracker (75 × 10^–9 M) and incubated for 2 h. Then, cells were fixed with 4% paraformaldehyde followed by DAPI mounting. Confocal laser scanning microscopy (SP8 X, Leica, Germany) was used to observe intracellular fluorescence, and images were processed using LAS X software (Leica).
Fig. S11. Significant cellular uptake of Lf-GL in U87MG. (a) Flow cytometry to evaluate cellular uptake of FITC tagged-Lf-GL (1 µM) in U87MG for 2,6, and 18 h. The 2 h pre-treatment of Lf and Pitstop® were treated in the concentration of 500 nM and 75 nM, respectively. (b) Quantification of cellular uptake for 18 h. Data were expressed as mean ± S.E.M (n=2).

Row | Molecule | Mice survived up to 28 days [1] [%] | Additional days of survival versus PBS control ([1]; 28 days) [days] | Decrease of MFI of CD31 (CD31) [fold] | HMGB1 level in medium (HMGB1 [2]) [ng/mL] | TUNEL MFI [3] | Number of cells, % of the original count [4] [%] | KD, equilibrium dissociation constant (KD = Kd Ka^−1) [5] [nM] | Ka, association rate constant ([5]; PBS pH 7.4, room temperature) | GBM/normal brain ratio [6] | Reduction of endothelial cell proliferation (HUVEC) [%] | Mean fluorescence intensity (MFI) of HMGB1 (HMGB1 [7]) | HMGB1 released into the medium of U87MG cells (HMGB1 [8]) [ng/mL] | Decrease of cellular internalization in the presence of Lf (U87MG cells)
1 | B1 | 25 | 5 | ~2 | 177.3 ± 3.6 | 9.4 ± 1.6 | 69.6 ± 5.7 | 165 ± 3 | (8.1±0.1)·10^4 M^-1s^-1 | 29.7 ± 3.3 | 8.2 ± 2.9 | 7.9 ± 1.4 | 114 ± 3.4 | –
2 | B2 | – | – | – | – | – | – | – | – | – | – | – | – | about 17%
